Data on ten molecules can be found in article PMC5389548.

The target in the series is thrombin (human, UniProt P00734;P00734 328-363;364-622). In words: microarray sandwich fluorescence.
As for GGTTGGTGTGGTTGG (structured_DNA, ten 2'F-ANA, positions lost in text) [sequence 10], binding was characterised by a dissociation constant (Kd) of 45 ± 14 nM. As for GGTTGGTGTGGTTGG (structured_DNA, 2'F-araT, positions lost in text) [sequence 16], the dissociation constant (Kd) (as a rule, the concentration at which binding is half-saturated) was found to be 117 ± 44 nM. GGTTGGTGTGGTTGG (structured_DNA, 2'F-araT, positions lost in text) [sequence 15]: the Kd is 85 ± 21 nM.

In turn, GGTTGGTGTGGTTGG (structured_DNA, eight 2'F-ANA, positions lost in text) [sequence 6] showed a Kd of 29 ± 2.7 nM. Molecule GGTTGGTGTGGTTGG (structured_DNA, 2'F-ANA at T3, G8, T12; full pattern lost in text) [sequence 1] came in with a dissociation constant Kd of 28 ± 1.6 nM. The molecule GGTTGGTGTGGTTGG (structured_DNA, 2'F-ANA at T3, G8, T12; full pattern lost in text) [sequence 2] gave a Kd of 28 ± 1.2 nM. Regarding GGTTGGTGTGGTTGG (structured_DNA) [TBA1 control], binding was characterised by a dissociation constant (Kd) of 93 ± 23 nM.

In the case of GGTTGGTGTGGTTGG (structured_DNA, ten 2'F-ANA, positions lost in text) [sequence 11], the dissociation constant (Kd) amounted to 53 ± 16 nM. GGTTGGTGTGGTTGG (structured_DNA, 2'F-ANA, positions lost in text) [sequence 4] showed a dissociation constant (Kd) of 41 ± 3.7 nM. As for GGTTGGTGTGGTTGG (structured_DNA, 2'F-ANA, positions lost in text) [sequence 3], binding was characterised by a dissociation constant (Kd) of 39 ± 10 nM.
